{"source": "paper PMC3299984", "about": "(Structure(London, England:1993), 2012)", "proteins": {"B1": {"name": "Schistosoma mansoni peroxiredoxin I (thioredoxin peroxidase I), reduced (enzyme)", "chain": "MVLLPNRPAPEFKGQAVINGEFKEICLKDYRGKYVVLFFYPADFTFVCPTEIIAFSDQVEEFNSRNCQVIACSTDSQYSHLAWDNLDRKSGGLGHMKIPLLADRKQEISKAYGVFDEEDGNAFRGLFIIDPNGILRQITINDKPVGRSVDETLRLLDAFQFVEKHGEVCPVNWKRGQHGIKVNQK"}}, "molecular_target": "the molecule itself", "assay": "SEC", "data": [{"protein": "B1", "values": [{"measurement": "stoichiometry N", "result": 10}]}]}
